This is an account of results in article PMC10786891, “Massively parallel profiling of RNA-targeting CRISPR-Cas13d”.

The chains are these.
T1: EsCas13d, nuclease-dead (Eubacterium siraeum, UniProt B0MS50, R295A;H300A;R849A;H854A)
T1 sequence: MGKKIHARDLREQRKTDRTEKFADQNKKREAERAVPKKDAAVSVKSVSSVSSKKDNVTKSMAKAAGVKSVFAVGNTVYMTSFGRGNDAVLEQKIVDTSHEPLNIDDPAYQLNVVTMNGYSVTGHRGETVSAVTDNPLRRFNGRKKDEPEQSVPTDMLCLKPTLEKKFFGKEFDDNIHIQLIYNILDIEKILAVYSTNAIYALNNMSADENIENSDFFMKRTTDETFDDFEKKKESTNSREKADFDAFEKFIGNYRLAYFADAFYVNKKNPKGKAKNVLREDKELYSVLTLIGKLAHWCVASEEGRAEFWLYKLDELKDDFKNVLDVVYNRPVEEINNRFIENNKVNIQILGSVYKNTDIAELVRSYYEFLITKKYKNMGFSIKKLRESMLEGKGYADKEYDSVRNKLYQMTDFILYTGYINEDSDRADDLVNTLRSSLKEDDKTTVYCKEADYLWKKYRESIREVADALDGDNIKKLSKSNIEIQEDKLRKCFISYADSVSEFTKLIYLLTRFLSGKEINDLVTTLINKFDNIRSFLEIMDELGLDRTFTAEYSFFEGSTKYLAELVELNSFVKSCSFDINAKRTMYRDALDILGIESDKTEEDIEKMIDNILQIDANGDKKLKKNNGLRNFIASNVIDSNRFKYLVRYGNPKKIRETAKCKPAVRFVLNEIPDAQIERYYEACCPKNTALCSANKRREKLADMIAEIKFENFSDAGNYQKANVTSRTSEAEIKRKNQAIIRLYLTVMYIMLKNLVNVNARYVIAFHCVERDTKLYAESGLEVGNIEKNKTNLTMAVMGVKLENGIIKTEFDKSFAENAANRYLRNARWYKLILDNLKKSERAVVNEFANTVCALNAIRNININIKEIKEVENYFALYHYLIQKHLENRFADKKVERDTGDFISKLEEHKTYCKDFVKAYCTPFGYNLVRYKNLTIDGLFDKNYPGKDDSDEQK

B1: target 1 MT 5'PFS GUU 3'PFS UUC (mixed)
RNA 1: CACCCGUGCAAAAAUGCAGGGGUCUAAAACUGAGCGGAUAACCUCUCUAUGG
RNA 2: GGGAAUGGAUCCACAUCUACGAAUUCGUUCCAUAGAGAGGUUAUCCGCUCAUUCAGAUCGGAAGAGCACACGU
B2: target 1 MT 5'PFS ACG 3'PFS UUA (mixed)
RNA 1: B1 RNA 1
RNA 2: B1 RNA 2 with G27A, U28C, U29G, C54A
B3: target 1 MT 5'PFS ACG 3'PFS UUG (mixed)
RNA 1: B1 RNA 1
RNA 2: B1 RNA 2 with G27A, U28C, U29G, C54G
B4: target 1 MT 5'PFS GGG 3'PFS GAG (mixed)
RNA 1: B1 RNA 1
RNA 2: B1 RNA 2 with U28G, U29G, U52G, U53A, C54G
B5: target 1 MT 5'PFS UGA 3'PFS CCU (mixed)
RNA 1: B1 RNA 1
RNA 2: B1 RNA 2 with G27U, U28G, U29A, U52C, U53C, C54U
B6: target 1 insC 3' of 14,insC 3' of 9 (mixed)
RNA 1: B1 RNA 1
RNA 2: GGGAAUGGAUCCACAUCUACGAAUUCGUACCAUAGAGACGGUUACUCCGCUCACCGAGAUCGGAAGAGCACACGU
B7: target 1 MT 5'PFS UUG 3'PFS CGG (mixed)
RNA 1: B1 RNA 1
RNA 2: B1 RNA 2 with G27U, U29G, U52C, U53G, C54G
B8: target 1 MT 5'PFS GUU 3'PFS UUA (mixed)
RNA 1: B1 RNA 1
RNA 2: B1 RNA 2 with C54A
B9: target 1 MT 5'PFS GUU 3'PFS AUG (mixed)
RNA 1: B1 RNA 1
RNA 2: B1 RNA 2 with U52A, C54G
B10: target 1 MT 5'PFS CUG 3'PFS CUA (mixed)
RNA 1: B1 RNA 1
RNA 2: B1 RNA 2 with G27C, U29G, U52C, C54A
B11: target 1 MT 5'PFS UAC 3'PFS ACU (mixed)
RNA 1: B1 RNA 1
RNA 2: B1 RNA 2 with G27U, U28A, U29C, U52A, U53C, C54U
B12: target 1 MT 5'PFS UUG 3'PFS CGA (mixed)
RNA 1: B1 RNA 1
RNA 2: B1 RNA 2 with G27U, U29G, U52C, U53G, C54A
B13: target 1 MT 5'PFS GUU 3'PFS AUA (mixed)
RNA 1: B1 RNA 1
RNA 2: B1 RNA 2 with U52A, C54A
B14: target 1 MT 5'PFS GUU 3'PFS AUC (mixed)
RNA 1: B1 RNA 1
RNA 2: B1 RNA 2 with U52A
B15: target 1 MT 5'PFS CUG 3'PFS CUC (mixed)
RNA 1: B1 RNA 1
RNA 2: B1 RNA 2 with G27C, U29G, U52C
B16: target 1 MT 5'PFS ACG 3'PFS UUC (mixed)
RNA 1: B1 RNA 1
RNA 2: B1 RNA 2 with G27A, U28C, U29G
B17: target 1 MT 5'PFS CUU 3'PFS UAU (mixed)
RNA 1: B1 RNA 1
RNA 2: B1 RNA 2 with G27C, U53A, C54U

Numbering of substitutions follows the chain as printed.

The data set has as its target T1, EsCas13d, nuclease-dead. As to the kind of experiment: crRNA (strand 1, pre-loaded); Mg2+; 40 mM Tris-HCl pH 7.5, 150 mM NaCl, 6 mM MgCl2, 1 mM DTT, 0.1% Tween-20, 0.2 mg/ml BSA; 25 C; 10 min per concentration, then washed. The note with it: tags: His6-TwinStrep-SUMO cleaved; N-terminal SNAP kept (SNAP-Surface 488); label: 3' end held by stalled T7 RNA polymerase.
By Kd is commonly meant the equilibrium constant for the complex coming apart. In turn, B1 returned a Kd of 0.0106 ± 0.00145 µM.
With B2 the figure was 0.0069 ± 0.0013 µM.
With B3 the figure was 0.00745 ± 0.001 µM; with B4, 0.0205 ± 0.0055 µM; with B5, 0.036 ± 0.015 µM.
The molecule B6 yielded an equilibrium dissociation constant (Kd) of 0.042 ± 0.011 µM.
With B7 the figure was around 0.097 µM; with B8, 0.0131 ± 0.0025 µM.
The molecule B9 came in with a Kd of 0.056 ± 0.009 µM.
With B10 the figure was 0.0058 ± 0.0019 µM; with B11, 0.0112 ± 0.0035 µM; with B12, 0.0475 ± 0.0235 µM.
In the case of B13 it was 0.022 ± 0.0055 µM; in that of B14, 0.0193 ± 0.00355 µM.
With B15 the figure was 0.00415 ± 0.0015 µM; with B16, 0.0195 ± 0.008 µM.
For B17, the Kd came to 0.056 ± 0.024 µM.
